Where a chain is given by its changes, count along the chain named. In names and notes the source's numbering stands. Blank lines part the entries; values can stand above or below the binder they belong to.
Assays:
[1] = molecular target: rHuman Notch-1/Fc Chimera, CF (R&D Systems Cat#3647-TK) (human) (UniProt P46531); test: ECL multispot (MSD) assay, antigen spotted on plate, 20 nM Fab
[2] = molecular target: rHuman ErbB2/Fc Chimera, CF (R&D Systems Cat#1129-ER) (human) (UniProt P04626); test: ECL multispot (MSD) binding assay, antigen spotted on plate, Fab 0.04 uM
[3] = molecular target: Recombinant Human DLL4 (R&D Systems Cat#1506-D4/CF) (human) (UniProt Q9NR61); test: ECL (MSD) binding assay, immobilised DLL4
[4] = molecular target: Recombinant Human DLL4 (delta-like protein 4) (human) (UniProt Q9NR61); test: ELISA, DLL4 coated on plate, Fab at 50 nM (2-fold dilution series), absorbance at 450 nm
[5] = molecular target: Recombinant Human DLL4 (delta-like protein 4) (human) (UniProt Q9NR61); test: ELISA, DLL4 coated on plate, Fab at 12.5 nM (2-fold dilution series), absorbance at 450 nm
[6] = molecular target: Recombinant Human DLL4 (delta-like protein 4) (human) (UniProt Q9NR61); test: ELISA, DLL4 coated on plate, Fab at 100 nM (2-fold dilution series), absorbance at 450 nm
[7] = molecular target: Recombinant Human DLL4 (delta-like protein 4) (human) (UniProt Q9NR61); test: ELISA, DLL4 coated on plate, Fab at 25 nM (2-fold dilution series), absorbance at 450 nm
[8] = molecular target: Recombinant Human DLL4 (R&D Systems Cat#1506-D4/CF) (human) (UniProt Q9NR61); test: ELISA, DLL4 coated on plate, Fab at […]
[9] = molecular target: Recombinant Human DLL4 (R&D Systems Cat#1506-D4/CF) (human) (UniProt Q9NR61); test: ELISA, DLL4 coated on plate, Fab at 2.22 nM
[10] = molecular target: Recombinant Human DLL4 (R&D Systems Cat#1506-D4/CF) (human) (UniProt Q9NR61); test: ELISA, DLL4 coated on plate, Fab at 20 nM
[11] = molecular target: Recombinant Human DLL4 (R&D Systems Cat#1506-D4/CF) (human) (UniProt Q9NR61); test: ELISA, DLL4 coated on plate, Fab at 0.74 nM
[12] = molecular target: human Delta-like ligand 4 (DLL4), full-length, expressed on CHO cells (human) (UniProt Q9NR61); test: cell-based or functional assay
[13] = molecular target: rHuman P-Cadherin/Fc Chimera, CF (R&D Systems Cat#861-PC) (human) (UniProt P22223); test: Multispot ECL (MSD), antigen spotted on plate, Fab […]; blank spot 357
[14] = molecular target: rHuman P-Cadherin/Fc Chimera, CF (R&D Systems Cat#861-PC) (human) (UniProt P22223); test: Multispot ECL (MSD), antigen spotted on plate, Fab 36.3 nM; blank spot 314
[15] = molecular target: rHuman P-Cadherin/Fc Chimera, CF (R&D Systems Cat#861-PC) (human) (UniProt P22223); test: Multispot ECL (MSD), antigen spotted on plate, Fab 580 nM; blank spot 679
[16] = molecular target: rHuman P-Cadherin/Fc Chimera, CF (R&D Systems Cat#861-PC) (human) (UniProt P22223); test: Multispot ECL (MSD), antigen spotted on plate, Fab […]; blank spot 276

ECL signal/blank ratio (read-out not given) [1]: 3.1
B1: Fab VH3-23_IGHD2-21*01>3_IGHJ6*01 H100E/S108P/Y113G T58A & V2-13_IGLJ2*01 (Fab, V domains shown)
VH: EVQLLESGGGLVQPGGSLRLSCAASGFTFSSYAMSWVRQAPGKGLEWVSSISGSGGSAYYADSVKGRFTISRDNSKNTLYLQMNSLRAEDTAVYYCAKEEIVVVIAIPYYYYGYGMDVWGQGTLVTVSS
VL: SSELTQDPAVSVALGQTVRITCQGDSLRSYYASWYQQKPGQAPVLVIYGKNNRPSGIPDRFSGSSSGNTASLTITGAQAEDEADYYCNSRDSSGNHLVVFGGGTKLTVL

ECL signal/blank ratio (read-out not given) [1]: 3.5
B2: Fab VH3-23_IGHD2-21*01>3_IGHJ6*01 H100E/S108P/Y113G D62A & V2-13_IGLJ2*01 (Fab, V domains shown)
VH: B1 VH with A58T, D62A
VL: B1 VL

ECL signal [2]: 1370
B3: Fab VH5-51_IGHD5-18*01>3_IGHJ4*01 G100K/G104T (H:KT) & V3-4_IGLJ1*01 L92A (Fab, V domains shown)
VH: EVQLVQSGAEVKKPGESLKISCKGSGYSFTSYWIGWVRQMPGKGLEWMGIIYPGDSDTRYSPSFQGQVTISADKSISTAYLQWSSLKASDTAMYYCARRKYSYTYDYFDYWGQGTLVTVSS
VL: QTVVTQEPSFSVSPGGTVTLTCGLSSGSVSTSYYPSWYQQTPGQAPRTLIYSTNTRSSGVPDRFSGSILGNKAALTITGAQADDESDYYCVAYMGSGISYVFGTGTKVTVL

ECL signal [3]: 1200
B4: Fab VH5-51_IGHD5-18*01>3_IGHJ4*01 G100K/G104T G24A/S28R/G35V & V3-4_IGLJ1*01 M94R/S96M (L:RM) (Fab, V domains shown)
VH: B3 VH with G24A, S28R, G35V
VL: B3 VL with A92L, M94R, S96M

ELISA signal [4]: 0.25
ELISA signal [5]: 0.24
ELISA signal [6]: 0.3
ELISA signal [7]: 0.22
B5: Fab VH5-51_IGHD5-18*01>3_IGHJ4*01 G100K/G104T G24L/S28R/G35V D109Q & V3-4_IGLJ1*01 (wildtype) (Fab, V domains shown)
VH: B3 VH with G24T, S28R, G35V, D109Q
VL: B3 VL with A92L

ECL signal [3]: 530
B6: Fab VH5-51_IGHD5-18*01>3_IGHJ4*01 G100K/G104T S28R & V3-4_IGLJ1*01 M94R/S96M (L:RM) (Fab, V domains shown)
VH: B3 VH with S28R
VL: B3 VL with A92L, M94R, S96M

ELISA signal [4]: 0.24
ELISA signal [5]: 0.21
ELISA signal [6]: 0.28
ELISA signal [7]: 0.2
B7: Fab VH5-51_IGHD5-18*01>3_IGHJ4*01 G100K/G104T G24A/S28R/G35V Y107F & V3-4_IGLJ1*01 (wildtype) (Fab, V domains shown)
VH: B3 VH with G24T, S28R, G35V, Y107F
VL: B3 VL with A92L

ELISA signal [8]: 0.034
ELISA signal [9]: 0
ELISA signal [10]: 0.006
ELISA signal [11]: 0
B8: Fab VH5-51_IGHD5-18*01>3_IGHJ4*01 G100K/G104T G24A/S28R/G35V (H:KT ARV) & V3-4_IGLJ1*01 M94R/S96M (L:RM) (Fab, V domains shown)
VH: B3 VH with G24A, S28R, G35V
VL: B3 VL with A92L, M94R, S96M

ELISA signal [8]: 0
ELISA signal [9]: 0
ELISA signal [10]: 0.003
ELISA signal [11]: 0
B9: Fab VH5-51_IGHD5-18*01>3_IGHJ4*01 G100K/G104T G24L/S28R/G35V (H:KT LRV) & V3-4_IGLJ1*01 M94R/S96M (L:RM) (Fab, V domains shown)
VH: B3 VH with G24L, S28R, G35V
VL: B3 VL with A92L, M94R, S96M

ECL signal [3]: 889
B10: Fab VH5-51_IGHD5-18*01>3_IGHJ4*01 G100K/G104T G24L/S28R/G35V & V3-4_IGLJ1*01 M94R/S96M (L:RM) (Fab, V domains shown)
VH: B3 VH with G24L, S28R, G35V
VL: B3 VL with A92L, M94R, S96M

ELISA signal [4]: 0.18
ELISA signal [5]: 0.21
ELISA signal [6]: 0.25
ELISA signal [7]: 0.19
B11: Fab VH5-51_IGHD5-18*01>3_IGHJ4*01 G100K/G104T G24T/S28R/G35V Y105N & V3-4_IGLJ1*01 (wildtype) (Fab, V domains shown)
VH: B3 VH with G24T, S28R, G35V, Y105N
VL: B3 VL with A92L

ELISA signal [4]: 0.2
ELISA signal [5]: 0.21
ELISA signal [6]: 0.23
ELISA signal [7]: 0.19
B12: Fab VH5-51_IGHD5-18*01>3_IGHJ4*01 G100K/G104T G24L/S28R/G35V Y105H & V3-4_IGLJ1*01 (wildtype) (Fab, V domains shown)
VH: B3 VH with G24T, S28R, G35V, Y105H
VL: B3 VL with A92L

Notch1 luciferase reporter luminescence, T98G reporter cells + CHO-DLL4, 0.8 nM Fab, replicate 1 [12]: 4480
Notch1 luciferase reporter luminescence, T98G reporter cells + CHO-DLL4, 0.8 nM Fab, replicate 2 [12]: 4540
Notch1 luciferase reporter luminescence, T98G reporter cells + CHO-DLL4, 0.8 nM Fab, replicate 3 [12]: 3910
Notch1 luciferase reporter luminescence, T98G reporter cells + CHO-DLL4, 0.8 nM Fab, replicate 4 [12]: 4220
Notch1 luciferase reporter luminescence, T98G reporter cells + CHO-DLL4, 4 nM Fab, replicate 1 [12]: 4810
Notch1 luciferase reporter luminescence, T98G reporter cells + CHO-DLL4, 4 nM Fab, replicate 2 [12]: 4920
Notch1 luciferase reporter luminescence, T98G reporter cells + CHO-DLL4, 4 nM Fab, replicate 3 [12]: 4190
Notch1 luciferase reporter luminescence, T98G reporter cells + CHO-DLL4, 4 nM Fab, replicate 4 [12]: 4520
Notch1 luciferase reporter luminescence, T98G reporter cells + CHO-DLL4, 20 nM Fab, replicate 1 [12]: 5400
Notch1 luciferase reporter luminescence, T98G reporter cells + CHO-DLL4, 20 nM Fab, replicate 2 [12]: 4990
Notch1 luciferase reporter luminescence, T98G reporter cells + CHO-DLL4, 20 nM Fab, replicate 3 [12]: 4320
Notch1 luciferase reporter luminescence, T98G reporter cells + CHO-DLL4, 20 nM Fab, replicate 4 [12]: 4550
Notch1 luciferase reporter luminescence, T98G reporter cells + CHO-DLL4, 100 nM Fab, replicate 1 [12]: 4820
Notch1 luciferase reporter luminescence, T98G reporter cells + CHO-DLL4, 100 nM Fab, replicate 2 [12]: 4810
Notch1 luciferase reporter luminescence, T98G reporter cells + CHO-DLL4, 100 nM Fab, replicate 3 [12]: 4030
Notch1 luciferase reporter luminescence, T98G reporter cells + CHO-DLL4, 100 nM Fab, replicate 4 [12]: 4470
B13: Fab VH6-1_IGHD6-13*01_IGHJ4*01 and V2-17_IGLJ2*01 (Fab, V domains shown)
VH: QVQLQQSGPGLVKPSQTLSLTCAISGDSVSSNSAAWNWIRQSPSRGLEWLGRTYYRSKWYNDYAVSVKSRITINPDTSKNQFSLQLNSVTPEDTAVYYCAREGYSSSWYDYFDYWGQGTLVTVSS
VL: SYELTQPPSVSVSPGQTARITCSGDALPKQYAYWYQQKPGQAPVLVIYKDSERPSGIPERFSGSSSGTTVTLTISGVQAEDEADYYCQSADSSGTYPVVFGGGTKLTVL

ECL signal at 145 nM Fab [13]: 850
ECL signal at 36.3 nM Fab [14]: 684
ECL signal at 580 nM Fab [15]: 2240
ECL signal at 9.1 nM Fab [16]: 589
B14: Fab VH4-34_IGHD7-27*01_IGHJ4*01 & V1-4_IGLJ4*01 (Fab, V domains shown)
VH: QVQLQQWGAGLLKPSETLSLTCAVYGGSFSGYYWSWIRQPPGKGLEWIGEINHSGSTNYNPSLKSRVTISVDTSKNQFSLKLSSVTAADTAVYYCARANWGDYFDYWGQGTLVTVSS
VL: QSALTQPASVSGSPGQSITISCTGTSSDVGGYNYVSWYQQHPGKAPKLMIYEVSNRPSGVSNRFSGSKSGNTASLTISGLQAEDEADYYCSSYTSSSTLFVFGGGTQLIIL
